The target in this data set is nerve growth factor (NGF) (UniProt P01139 P01139:122-241). Kind of data set: filter. The conditions noted are these: chain copies: 2.
Sequence of nerve growth factor (NGF) (P01139 122-241, one chain of several): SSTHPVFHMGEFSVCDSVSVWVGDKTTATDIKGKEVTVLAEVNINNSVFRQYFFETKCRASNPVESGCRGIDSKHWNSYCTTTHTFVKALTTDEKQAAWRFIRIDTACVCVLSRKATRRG

B1: hsngf.a (ssRNA)
RNA: GGGAGCUCAGAAUAAACGCUCAACUCAUGGAGCGCAAGACGAAUAGCUACAUAUUCGACAUGAGGCCCGGAUCCGGC
As to B1, the binding result was “binds”.

The values above are taken from patent publication US5670637, “Nucleic acid ligands” (NeXstar Pharmaceuticals, Inc.).
